Experimental data reported in PMC2120828 (The Journal of Cell Biology, 1996).
One block for each binder: values may come before it.

Columns and labels:
Test in all cases: two-hybrid
[1] = target: DBDlexA-Cdc42(D118A/C188S) (S. cerevisiae, UniProt P19073 1-191, D118A | C188S)
[2] = target: DBDlexA-Cdc42(Q61L/C188S) (S. cerevisiae, UniProt P19073 1-191, Q61L | C188S)
DBDlexA-Cdc42(C188S) = DBDlexA-Cdc42(C188S) (S. cerevisiae, UniProt P19073 1-191, C188S)
Chain of DBDlexA-Cdc42(C188S) (P19073 whole entry C188S): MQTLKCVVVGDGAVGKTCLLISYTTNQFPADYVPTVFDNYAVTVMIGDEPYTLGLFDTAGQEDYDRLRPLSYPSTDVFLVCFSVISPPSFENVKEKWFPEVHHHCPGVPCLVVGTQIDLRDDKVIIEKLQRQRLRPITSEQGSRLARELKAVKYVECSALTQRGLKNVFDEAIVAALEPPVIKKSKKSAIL

Chain of DBDlexA-Cdc42(D118A/C188S) (P19073 whole entry D118A/C188S): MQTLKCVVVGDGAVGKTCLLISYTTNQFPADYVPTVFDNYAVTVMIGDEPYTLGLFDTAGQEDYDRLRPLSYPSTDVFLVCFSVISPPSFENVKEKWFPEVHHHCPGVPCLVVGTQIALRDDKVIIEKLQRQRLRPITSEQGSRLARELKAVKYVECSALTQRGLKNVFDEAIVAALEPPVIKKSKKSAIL
Chain of DBDlexA-Cdc42(Q61L/C188S) (P19073 whole entry Q61L/C188S): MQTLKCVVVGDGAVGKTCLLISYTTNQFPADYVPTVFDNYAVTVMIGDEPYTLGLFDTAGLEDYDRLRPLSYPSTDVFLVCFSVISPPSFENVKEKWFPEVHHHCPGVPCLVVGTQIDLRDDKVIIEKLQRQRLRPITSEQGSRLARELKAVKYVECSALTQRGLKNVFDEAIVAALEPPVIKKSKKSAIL

beta-galactosidase activity [1]: < 0.02
B1: ADGal4-BOI1(375-557) (domain or fragment, S. cerevisiae)
chain: ILDMTEVPNLFADKDIFESPGRAPKPPSYPSPVQPPQSPSFNNRYTNNNARFPPQTTYPPKNKNPTVYSNGLIPNSSTSSDNSTGKFKFPAMNGHDSNSRKTTLTSATIPSINTVNTDESLPAISNISSNATSHHPNRNSVVYNNHKRTESGSSFVDLFNRISMLSPVKSSFDEEETKQPSKA

beta-galactosidase activity [2]: 400
beta-galactosidase activity [1]: < 0.02
B2: ADGal4-BOI1(375-980) (domain or fragment, S. cerevisiae)
chain: ILDMTEVPNLFADKDIFESPGRAPKPPSYPSPVQPPQSPSFNNRYTNNNARFPPQTTYPPKNKNPTVYSNGLIPNSSTSSDNSTGKFKFPAMNGHDSNSRKTTLTSATIPSINTVNTDESLPAISNISSNATSHHPNRNSVVYNNHKRTESGSSFVDLFNRISMLSPVKSSFDEEETKQPSKASRAVFDSARRKSSYGHSRDASLSEMKKHRRNSSILSFFSSKSQSNPTSPTKQTFTIDPAKMTSHSRSQSNSYSHARSQSYSHSRKHSLVTSPLKTSLSPINSKSNIALAHSETPTSSNNKEAVSQPSEGKHKHKHKHKSKHKHKNSSSKDGSSEEKSKKKLFSSTKESFVGSKEFKRSPSELTQKSTKSILPRSNAKKQQTSAFTEGIRSITAKESMQTADCSGWMSKKGTGAMGTWKQRFFTLHGTRLSYFTNTNDEKERGLIDITAHRVLPASDDDRLISLYAASLGKGKYCFKLVPPQPGSKKGLTFTEPRVHYFAVENKSEMKAWLSAIIKATIDIDTSVPVISSYATPTIPLSKAQTLLEEARLQTQLRDAEEEEGRDQFGWDDTQNKRNSNYPIEQDQFETSDYLESSAFEYPGGRL

beta-galactosidase activity [2]: 230
beta-galactosidase activity (DBDlexA-Cdc42(C188S)): 380
beta-galactosidase activity [1]: < 0.02
B3: ADGal4-BOI1(731-980) (domain or fragment, S. cerevisiae)
chain: EFKRSPSELTQKSTKSILPRSNAKKQQTSAFTEGIRSITAKESMQTADCSGWMSKKGTGAMGTWKQRFFTLHGTRLSYFTNTNDEKERGLIDITAHRVLPASDDDRLISLYAASLGKGKYCFKLVPPQPGSKKGLTFTEPRVHYFAVENKSEMKAWLSAIIKATIDIDTSVPVISSYATPTIPLSKAQTLLEEARLQTQLRDAEEEEGRDQFGWDDTQNKRNSNYPIEQDQFETSDYLESSAFEYPGGRL
